From publication PMC6035297 (2018) come the findings set out here.

Square brackets hold non-standard residues; d marks the D form. Ends that are not written are not given here. pY = N[C@@H](Cc1ccc(OP(=O)(O)O)cc1)C(=O)O Some results are limits rather than exact numbers.

Broadly, the Kd is the constant that tells how readily two partners part at equilibrium.

The assay concerns the target T1, CTpY phosphopeptide (PLCγ1 pTyr783) 779-790 (Homo sapiens, UniProt P19174).
T1 chain: NPGF[pY]VEANPMP
Nature of the assay: NMR titration.

B1: PLCγ1 tandem SH2 (NSH2CSH2ΔCT) nSH2-cSH2 545-770 (protein)
chain: HSNEKWFHGKLGAGRDGRHIAERLLTEYCIETGAPDGSFLVRESETFVGDYTLSFWRNGKVQHCRIHSRQDAGTPKFFLTDNLVFDSLYDLITHYQQVPLRCNEFEMRLSEPVPQTNAHESKEWYHASLTRAQAEHMLMRVPRDGAFLVRKRNEPNSYAISFRAEGKIKHCRVQQEGQTVMLGNSEFDSLVDLISYYEKHPLYRKMKLRYPINEEALEKIGTAEPD
B1: the Kd is less than 15 µM.
